Test results: patent US20080299638A1 (priority 2004, published 2008)
Several values for one entry are separate records, joined by “and”; a condition that tells them apart may be missing. Equal values may be shown once.

Legend:
2.2.15 cells = test: Arginase toxicity to cells (CPE method, Reed-Muench); format: cell-based, human; settings: 8 days drug addition
Method: Divide experiment into control group and test groups with different drug concentration. Digest cells, dilute to 200,000 cells/ml, transfer to culture plate, 100 μl per well for 96-well plate, incubate for 24 hours under 5% CO2 at 37° C., ready for experiment when cells grown into monolayer. […] Observe cytopathological changes, 8 days or 4 days under microscope, totally destroyed is 4; 75% destroyed is 3; 50% destroyed is 2, 25% destroyed is 1; no changes is 0. Calculate TC50 and TC0 according to Reed-Muench Method:
A=log>50% drug concentration; B=log<50% drug concentration; C=log times of dilution
Starting from 40 IU/ml and subsequently 20, 10, 5, 2.5 IU/ml, change drug solution every 4 days until 8 days, observe cytopathological changes under microscope, and check for CPE with microscope.

HBeAg = test: Suppression of HBeAg secretion in 2.2.15 cells (radioimmunoassay, cpm); format: cell-based, hepatitis B virus
Method: (§1) Grow 200000 cells/ml 2.2.15 cell on 24-well plate, 1 ml per well, incubate for 24 hours under 5% CO2 at 37° C. […] 4 wells per concentration, incubate under 5% CO2 at 37° C., change drug solution every 4 days with the same concentration, retrieve culture medium at day 8, preserve at −20° C. Repeat experiment for 2 batches, test for HBsAg and HBeAg separately. Check cpm value for each wells using γ-counter.
(§2) Calculating drug effectiveness: calculate the mean and standard deviation of cpm from the cell control group and groups with different drug concentration, P/N value and percent suppression, IC50 and SI. • (1)
(§3) [formula] • (2) Calculate IC50 for drug suppression of antigen:
(§4) [formula] • (4) Calculate the cpm differences between HBsAg and HBeAg in different dilutions and control groups by t-test.

HBsAg = test: Suppression of HBsAg secretion in 2.2.15 cells (radioimmunoassay, cpm); format: cell-based, hepatitis B virus; settings: for HBsAg IC50: first batch
Method: as §1, §2, §3, §4

HBV-DNA in 2.2.15 cells = test: HBV-DNA Southern blot in 2.2.15 cells; format: cell-based, hepatitis B virus
Method: Southern blot: Extraction of HBV-DNA from 2.2.15 cells: add drugs and incubate 2.2.15 cells for 8 days, remove medium and harvest cells, lyse cells with lysis solutions, extracts with equal volume phenol:chloroform:isopentanol twice, add absolute ethanol to precipitate nucleic acid, vacuum dry, re-dissolve in 20 μl TE buffer, add DNA sample buffer, put samples into agarose gel for electrophoresis. After electrophoresis, denature, neutralize and transfer to membrane. Oven dry, hybridize, expose with dot blotting the same time. Scan developed film with scanner, analyze relative density with gel-pro software, and calculate suppression rate and IC50.

[1] = 2.2.15 cells, 8 days incubation, TC0 concentration and dilutions
[2] = Arginase 1.25 IU/ml, batch 2, day 8
[3] = Arginase 1.25 IU/ml, two batches average line, day 8
[4] = Arginase 2.5 IU/ml, batch 1, day 8
[5] = Arginase 2.5 IU/ml, batch 2, day 8
[6] = Arginase 2.5 IU/ml, two batches average, day 8
[7] = Arginase 5 IU/ml, batch 1, day 8
[8] = Arginase 5 IU/ml, batch 2, day 8
[9] = Arginase 5 IU/ml, two batches average, day 8
[10] = Arginase 10 IU/ml, batch 1, day 8
[11] = Arginase 10 IU/ml, batch 2, day 8
[12] = Arginase 10 IU/ml, two batches average, day 8
[13] = Arginase 20 IU/ml, batch 1, day 8
[14] = Arginase 20 IU/ml, two batches average, day 8
[15] = Arginase 20 IU/ml, two batches average, day 8, listed as pegylated recombinant arginase
[16] = Arginase 2.5 μg/ml (unit as headed), batch 1, day 8
[17] = Arginase 2.5 μg/ml (unit as headed), batch 2, day 8
[18] = Arginase 5 μg/ml (unit as headed), batch 1, day 8
[19] = Arginase 5 μg/ml (unit as headed), batch 2, day 8
[20] = Arginase 10 μg/ml (unit as headed), batch 1, day 8
[21] = Arginase 10 μg/ml (unit as headed), batch 2, day 8
[22] = Arginase 20 μg/ml (unit as headed), batch 1, day 8
[23] = Arginase 20 μg/ml (unit as headed), batch 2, day 8

B1: Arginase: Pegylated recombinant human arginase (BCT-100); human arginase I with N-terminal six-histidine tag, SEQ ID NO: 3 (protein, listed as Homo sapiens)
chain: MHHHHHHMSAKSRTIGIIGAPFSKGQPRGGVEEGPTVLRKAGLLEKLKEQECDVKDYGDLPFADIPNDSPFQIVKNPRSVGKASEQLAGKVAQVKKNGRISLVLGGDHSLAIGSISGHARVHPDLGVIWVDAHTDINTPLTTTSGNLHGQPVSFLLKELKGKIPDVPGFSWVTPCISAKDIVYIGLRDVDPGEHYILKTLGIKYFSMTEVDRLGIGKVMEETLSYLLGRKKRPIHLSFDVDGLDPSFTPATGTPVVGGLTYREGLYITEEIYKTGLLSGLDIMEVNPSLGKTPEEVTRTVNTAVAITLACFGLAREGNHKPIDYLNPPK
modifications: PEGylated
- TC50 (2.2.15 cells): 40 IU/ml
- TC0 (2.2.15 cells; listed as pegylated recombinant arginase): 20±0 IU/ml
- Suppression of HBeAg secretion (result in words) (HBeAg; [1]): significantly inhibits
- HBeAg (CPM) % suppression (HBeAg; [2]): 37.3426%
- HBeAg (CPM) % suppression (HBeAg; [3]): 37.34%
- HBeAg (CPM) % suppression (HBeAg; [4]): 61.8387%
- HBeAg (CPM) % suppression (HBeAg; [5]): 41.8149%
- HBeAg (CPM) % suppression (HBeAg; [6]): 51.83±14.16%
- HBeAg (CPM) % suppression (HBeAg; [7]): 68.3484%
- HBeAg (CPM) % suppression (HBeAg; [8]): 39.5618%
- HBeAg (CPM) % suppression (HBeAg; [9]): 53.96±20.36%
- HBeAg (CPM) % suppression (HBeAg; [10]): 73.0985%
- HBeAg (CPM) % suppression (HBeAg; [11]): 48.3596%
- HBeAg (CPM) % suppression (HBeAg; [12]): 60.73±17.49%
- HBeAg (CPM) % suppression (HBeAg; [13]): 74.9808%
- HBeAg (CPM) % suppression (HBeAg; Arginase 20 IU/ml, batch 2, day 8): 62.4033%
- HBeAg (CPM) % suppression (HBeAg; [14]): 68.69±8.89%
- HBeAg (CPM) % suppression (HBeAg; [15]): 68.69±8.89%
- HBeAg IC50 (HBeAg; batch 1, day 8): 6.69 IU/ml
- HBeAg IC50 (HBeAg; batch 2, day 8): 6.05 IU/ml
- HBeAg IC50 (HBeAg; two batches average, day 8): 6.37 ± 0.45 IU/ml and 6.37 IU/ml
- HBeAg IC50 (HBeAg; two batches average, day 8, listed as pegylated recombinant arginase): 6.37±0.45 IU/ml
- Suppression of HBsAg secretion (result in words) (HBsAg; [1]): significantly inhibits
- HBsAg (CPM) % suppression (HBsAg; [2]): 4.463%
- HBsAg (CPM) % suppression (HBsAg; [3]): 4.46%
- HBsAg (CPM) % suppression (HBsAg; [4]): 37.18% and 37.1787%
- HBsAg (CPM) % suppression (HBsAg; [5]): 2.6073%
- HBsAg (CPM) % suppression (HBsAg; [6]): 19.92 ± 24.40%
- HBsAg (CPM) % suppression (HBsAg; [7]): 42.29% and 42.2871%
- HBsAg (CPM) % suppression (HBsAg; [8]): 1.4739%
- HBsAg (CPM) % suppression (HBsAg; [9]): 21.88 ± 28.86%
- HBsAg (CPM) % suppression (HBsAg; [10]): 47.97% and 47.9651%
- HBsAg (CPM) % suppression (HBsAg; [11]): 6.0761%
- HBsAg (CPM) % suppression (HBsAg; [12]): 27.02 ± 29.62%
- HBsAg (CPM) % suppression (HBsAg; [13]): 49.16% and 49.1558%
- HBsAg (CPM) % suppression (HBsAg; [14]): 29.81±27.35%
- HBsAg (CPM) % suppression (HBsAg; [15]): 29.81±27.35%
- HBsAg IC50 (HBsAg; day 8): (1)10.72 IU/ml
- HBsAg IC50 (HBsAg; day 8, listed as pegylated recombinant arginase): 10.72 IU/ml
- Effect on HBV-DNA in cells (result in words) (HBV-DNA in 2.2.15 cells; 2.2.15 cells, 8 days): lowers
- HBV-DNA Southern Blot In Lane % Suppression (HBV-DNA in 2.2.15 cells; [16]): 31.6525%
- HBV-DNA Southern Blot Sum % Suppression (HBV-DNA in 2.2.15 cells; [16]): 26.4131%
- HBV-DNA Southern Blot Sum (IOD) (HBV-DNA in 2.2.15 cells; Arginase 2.5 μg/ml (unit as headed), batch 1, day 8, control 29421): 21650 IOD
- HBV-DNA Southern Blot In Lane (IOD) (HBV-DNA in 2.2.15 cells; Arginase 2.5 μg/ml (unit as headed), batch 1, day 8, control 42082): 28762 IOD
- HBV-DNA Southern Blot In Lane % Suppression (HBV-DNA in 2.2.15 cells; [17]): 38.6255%
- HBV-DNA Southern Blot Sum % Suppression (HBV-DNA in 2.2.15 cells; [17]): 0%
- HBV-DNA Southern Blot Sum (IOD) (HBV-DNA in 2.2.15 cells; Arginase 2.5 μg/ml (unit as headed), batch 2, day 8, control 66143): 68619 IOD
- HBV-DNA Southern Blot In Lane (IOD) (HBV-DNA in 2.2.15 cells; Arginase 2.5 μg/ml (unit as headed), batch 2, day 8, control 76188): 88350 IOD
- HBV-DNA Southern Blot In Lane % Suppression (HBV-DNA in 2.2.15 cells; [18]): 31.5717%
- HBV-DNA Southern Blot Sum % Suppression (HBV-DNA in 2.2.15 cells; [18]): 31.6679%
- HBV-DNA Southern Blot Sum (IOD) (HBV-DNA in 2.2.15 cells; Arginase 5 μg/ml (unit as headed), batch 1, day 8, control 29421): 20104 IOD
- HBV-DNA Southern Blot In Lane (IOD) (HBV-DNA in 2.2.15 cells; Arginase 5 μg/ml (unit as headed), batch 1, day 8, control 42082): 28796 IOD
- HBV-DNA Southern Blot In Lane % Suppression (HBV-DNA in 2.2.15 cells; [19]): 19.0752%
- HBV-DNA Southern Blot Sum % Suppression (HBV-DNA in 2.2.15 cells; [19]): 30.0259%
- HBV-DNA Southern Blot Sum (IOD) (HBV-DNA in 2.2.15 cells; Arginase 5 μg/ml (unit as headed), batch 2, day 8, control 66143): 46283 IOD
- HBV-DNA Southern Blot In Lane (IOD) (HBV-DNA in 2.2.15 cells; Arginase 5 μg/ml (unit as headed), batch 2, day 8, control 76188): 61655 IOD
- HBV-DNA Southern Blot In Lane % Suppression (HBV-DNA in 2.2.15 cells; [20]): 22.7722%
- HBV-DNA Southern Blot Sum % Suppression (HBV-DNA in 2.2.15 cells; [20]): 17.6303%
- HBV-DNA Southern Blot Sum (IOD) (HBV-DNA in 2.2.15 cells; Arginase 10 μg/ml (unit as headed), batch 1, day 8, control 29421): 24234 IOD
- HBV-DNA Southern Blot In Lane (IOD) (HBV-DNA in 2.2.15 cells; Arginase 10 μg/ml (unit as headed), batch 1, day 8, control 42082): 32499 IOD
- HBV-DNA Southern Blot In Lane % Suppression (HBV-DNA in 2.2.15 cells; [21]): 13.0559%
- HBV-DNA Southern Blot Sum % Suppression (HBV-DNA in 2.2.15 cells; [21]): 29.1172%
- HBV-DNA Southern Blot Sum (IOD) (HBV-DNA in 2.2.15 cells; Arginase 10 μg/ml (unit as headed), batch 2, day 8, control 66143): 46884 IOD
- HBV-DNA Southern Blot In Lane (IOD) (HBV-DNA in 2.2.15 cells; Arginase 10 μg/ml (unit as headed), batch 2, day 8, control 76188): 66241 IOD
- HBV-DNA Southern Blot In Lane % Suppression (HBV-DNA in 2.2.15 cells; [22]): 25.2982%
- HBV-DNA Southern Blot Sum % Suppression (HBV-DNA in 2.2.15 cells; [22]): 14.9893%
- HBV-DNA Southern Blot Sum (IOD) (HBV-DNA in 2.2.15 cells; Arginase 20 μg/ml (unit as headed), batch 1, day 8, control 29421): 25011 IOD
- HBV-DNA Southern Blot In Lane (IOD) (HBV-DNA in 2.2.15 cells; Arginase 20 μg/ml (unit as headed), batch 1, day 8, control 42082): 31436 IOD
- HBV-DNA Southern Blot In Lane % Suppression (HBV-DNA in 2.2.15 cells; [23]): 38.6255%
- HBV-DNA Southern Blot Sum % Suppression (HBV-DNA in 2.2.15 cells; [23]): 47.9416%
- HBV-DNA Southern Blot Sum (IOD) (HBV-DNA in 2.2.15 cells; Arginase 20 μg/ml (unit as headed), batch 2, day 8, control 66143): 34433 IOD
- HBV-DNA Southern Blot In Lane (IOD) (HBV-DNA in 2.2.15 cells; Arginase 20 μg/ml (unit as headed), batch 2, day 8, control 76188): 46760 IOD
- HBV-DNA Southern Blot Sum IC50 (HBV-DNA in 2.2.15 cells; batch 1, 8 days): 25.42 IU/ml
- HBV-DNA Southern Blot In Lane IC50 (HBV-DNA in 2.2.15 cells; batch 1, day 8): 21.45 IU/ml
- HBV-DNA Southern Blot Sum IC50 (HBV-DNA in 2.2.15 cells; batch 2, 8 days): 14.17 IU/ml
- HBV-DNA Southern Blot In Lane IC50 (HBV-DNA in 2.2.15 cells; batch 2, day 8): 18.67 IU/ml
- HBV-DNA Southern Blot Sum IC50 (HBV-DNA in 2.2.15 cells; two batches average, 8 days): 19.79±7.95 IU/ml
- HBV-DNA Southern Blot In Lane IC50 (HBV-DNA in 2.2.15 cells; two batches average, day 8): 20.06±1.96 IU/ml
